Experimental findings from US6066780A, “Modification of lignin synthesis in plants” (Zeneca Limited, priority 1991, dated 2000) are described below.

Substrate in this data set: COc1cc(/C=C/CO)ccc1O
Nature of the data set: Kinetic characterisation of purified tobacco CAD enzyme. Type of data set: biochemical. Particulars: other: pure enzyme purified to homogeneity from tobacco stems; specific for NADP; pH 7.5. Here is the method: Six week old tobacco stems were frozen in liquid N, crushed with a hammer and homogenized in a Waring blender in buffer A. The homogenate was centrifuged at 45000×g for 30 min. Solid ammonium sulphate was added to the supernatant to bring it to 70% saturation and proteins were precipitated at 4° C. for 30 min. The precipitate was collected by centrifugation at 10,000 rpm for 1 hour. The pellet was resuspended in a minimum volume of buffer supplemented with 5% ethylene glycol, to reduce the ammonium sulphate concentration to approximately 40% saturation.
The supernatant was desalted and applied to a Blue Sepharose column. The column was washed in at least 6 column volumes buffer including one column volume supplemented with 4 mM NAD. This wash elutes other alcohol dehydrogenases. Specific elution of CAD was performed with a gradient of 0-4 mM NADP in buffer B. CAD-containing fractions were pooled and 5% ethylene glycol was added.
The pooled fractions from Blue Sepharose were applied to an FPLC Mono Q column. The column was washed until the Absorbance dropped to baseline levels. Proteins were eluted in a linear gradient of buffer with 20-400 mM Tris-HCl, pH 7.5.
MonoQ fractions were applied to a column of 2'5'ADP-Sepharose. The column was washed with 6 column volumes buffer including one column volume supplemented with 4 mM NAD. […]

B1: tobacco cinnamyl alcohol dehydrogenase (CAD, E.C. 1.1.1.195), purified from tobacco stems (Nicotiana tabacum) (protein)
chain 1: MGSLDVEKSAIGWAARDPSGLLSPYTYTLRNTGPEDVQVKVLYCGLCHSDLHQVKNDLGMSNYPLVPGHEVVGKVVEVGADVSKFKVGDTVGVGLLVGSCRNCGPCKREIEQYCNKKIWNCNDVYTDGKPTQGGFANSMVVDQNFVVKIPEGMAPEQAAPLLCAGITVYSPFNHFGFNQSGFRGGILGLGGVGHMGVKIAKAMGHHVTVISSSNKKRQEALEHLGADDYLVSSDTDKMQEAADSLDYIIDTVPVGHPLELYLSLLKIDGKLILIGVINTPLQFISPMVMLGRKSITGSFIGSMKETEEMLDFCKEKGVTSQIEIVKMDYINTAMERLEKNDVSYRFVVDVAGSKLDQ
chain 2: MGGLEVEKTTIGWAARDPSGVLSPYTYTLRNTGPEDVEVKVLYCGLCHTDLHQVKNDLGMSNYPLVPGHEVVGEVVEVGPDVSKFKVGDTVGVGLLVGSCRNCGPCKRDIEQYCNKKIWNCNDVYTDGKPTQGGFAKSMVVDQKFVVKIPEGMAPEQAAPLLCAGITVYSPLNHFGFKQSGLRGGILGLGGVGHMGVKIAKAMGHHVTVISSSNKKRQEALEHLGADDYLVSSDTDKMQEASDSLDYIIDTVPVGHPLEPYLSLLKIDGKLILMGVINTPLQFISPMVMLGRKSITGSFIGSMKETEEMLDFCKEKGVTSQIEIVKMDYINTAMERLEKNDVRYRFVVDVIGSKLDQ
notes: Using this protocol tobacco CAD was purified to homogeneity; from tissue; host or cells: stems of six week old tobacco plants
On to B1, for which the Michaelis constant (Km) came out at 12 µM.

Usually Km stands for the substrate concentration at which the rate is half of its maximum.
